Target: 6xHis-FoxR^peri-T192A (purified whole periplasmic region of FoxR with T192A) (P. aeruginosa)
Assay: AUC; sedimentation velocity titration: FoxR^peri fixed at 10 μm, FoxA^SD at 1, 2, 5, 10, 20, 40 and 80 μm; sw isotherm (absorbance and interference) globally fitted in SEDPHAT to an A+B <-> AB model; 8°C, 20 mM Tris pH 8.3, 500 mM NaCl, 1 mM DTT, 3% glycerol

Q: With “6xHis-FoxA^SD (purified signaling domain of FoxA) (from UniProt Q9I116 53-820) (domain or fragment)” as the substance, how does the Kd read?
A: 4.3 µM

Q: What about the stoichiometry N of the same substance?
A: 1

Source: paper PMC11637429
